Results on five molecules are retold here after US20200247894A1 (Regeneron, published 2020).

Assay [1] deals with T1, Rat IL2Rγ extracellular domain expressed with a C-terminal myc-myc-hexahistidine tag (rat).
T1 construct: whole entry is the tagged construct; also called rIL-2Rg-MMH; rat IL-2Rg-MMH
T1 chain: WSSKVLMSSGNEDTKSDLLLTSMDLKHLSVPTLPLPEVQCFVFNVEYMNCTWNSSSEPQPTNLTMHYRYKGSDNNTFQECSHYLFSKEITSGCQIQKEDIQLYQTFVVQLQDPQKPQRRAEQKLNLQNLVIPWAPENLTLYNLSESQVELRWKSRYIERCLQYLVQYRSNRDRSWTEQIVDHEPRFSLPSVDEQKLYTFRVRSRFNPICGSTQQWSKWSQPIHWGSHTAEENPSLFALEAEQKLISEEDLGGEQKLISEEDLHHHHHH
The assay is described as follows: SPR Biacore 4000, anti-hFc-captured mAb, 37 C. The method, then: (§1) Equilibrium dissociation constants (KD values) for IL-2Rγ binding to purified anti-IL2Rγ monoclonal antibodies were determined using a Biacore 4000 instrument equipped with a real-time surface plasmon resonance biosensor. All binding studies were performed in 10 mM HEPES, 150 mM NaCl, 3 mM EDTA, and 0.05% v/v Surfactant Tween-20, pH 7.4 (HBS-ET) running buffer at 25° C. and 37° C. The Biacore sensor surface was first derivatized by amine coupling with a monoclonal mouse anti-human Fc antibody (GE, # BR-1008-39) to capture anti-IL2Rγ monoclonal antibodies.
(§2) The dissociation of monoclonal antibody bound IL2Rγ reagents were monitored for 8-10 minutes in HBS-ET running buffer. Kinetic association (kₐ) and dissociation (kd) rate constants were determined by fitting the real-time sensorgrams to a 1:1 binding model using Scrubber 2.0c curve fitting software. Binding dissociation equilibrium constants (KD) and dissociative half-lives (t_{1/2}) were calculated from the kinetic rate constants as: […]
For orientation: SPR reads the build-up and loss of mass on a sensor chip optically.

The target in assay [2] is T2, Macaca fascicularis IL2Rγ extracellular domain expressed with a C-terminal myc-myc-hexahistidine tag (Macaca fascicularis).
T2 construct: whole entry is the tagged construct; also called mfIL-2Rg-MMH
T2 chain: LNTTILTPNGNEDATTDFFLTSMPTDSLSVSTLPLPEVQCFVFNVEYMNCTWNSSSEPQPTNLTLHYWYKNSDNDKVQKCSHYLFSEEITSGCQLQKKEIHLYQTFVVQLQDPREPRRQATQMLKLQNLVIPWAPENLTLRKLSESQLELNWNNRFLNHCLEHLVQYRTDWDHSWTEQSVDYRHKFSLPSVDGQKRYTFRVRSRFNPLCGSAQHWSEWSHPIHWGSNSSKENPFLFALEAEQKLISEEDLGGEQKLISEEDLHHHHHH
The assay is described as follows: SPR Biacore 4000, anti-hFc-captured mAb, 37 C. On the procedure:
as §1, §2

Assay [3] has as its target T3, Mouse IL2Rγ extracellular domain expressed with a C-terminal myc-myc-hexahistidine tag (mouse).
T3 construct: whole entry is the tagged construct; also called mIL-2Rg-MMH
T3 chain: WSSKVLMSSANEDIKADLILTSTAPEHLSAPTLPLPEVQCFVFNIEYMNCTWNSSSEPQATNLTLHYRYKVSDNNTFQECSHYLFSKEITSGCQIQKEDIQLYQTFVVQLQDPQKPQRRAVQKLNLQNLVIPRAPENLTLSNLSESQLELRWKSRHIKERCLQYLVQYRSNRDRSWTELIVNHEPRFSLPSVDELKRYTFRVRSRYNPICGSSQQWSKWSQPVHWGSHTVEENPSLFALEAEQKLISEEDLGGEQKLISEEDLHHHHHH
The assay is described as follows: SPR Biacore 4000, anti-hFc-captured mAb, 37 C. On the procedure: as §1, §2

The target in assay [4] is T4, Human IL2Rγ extracellular domain expressed with a C-terminal mouse IgG2a Fc tag (human).
T4 construct: whole entry is the Fc-fused construct; also called hIL-2Rg-mFc
T4 chain: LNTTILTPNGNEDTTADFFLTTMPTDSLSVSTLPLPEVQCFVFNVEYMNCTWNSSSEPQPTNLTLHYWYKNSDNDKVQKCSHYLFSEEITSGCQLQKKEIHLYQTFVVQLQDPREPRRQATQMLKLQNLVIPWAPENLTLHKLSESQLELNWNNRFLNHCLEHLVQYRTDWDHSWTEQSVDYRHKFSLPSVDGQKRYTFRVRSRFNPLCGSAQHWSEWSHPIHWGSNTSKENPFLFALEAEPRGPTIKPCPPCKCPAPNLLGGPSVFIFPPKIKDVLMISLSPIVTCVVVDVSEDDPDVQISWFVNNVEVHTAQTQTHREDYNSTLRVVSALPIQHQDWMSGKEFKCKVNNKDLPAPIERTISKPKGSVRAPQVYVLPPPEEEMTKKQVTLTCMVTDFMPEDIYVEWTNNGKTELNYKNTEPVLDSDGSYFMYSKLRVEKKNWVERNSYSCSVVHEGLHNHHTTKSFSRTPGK
The assay is described as follows: SPR Biacore 4000, anti-hFc-captured mAb, 37 C. The method, then:
as §1, §2

The target in assay [5] is T1, Rat IL2Rγ extracellular domain …. The assay is described as follows: SPR Biacore 4000, anti-hFc-captured mAb, 25 C. On the procedure: as §1, §2
In assay [6] the target is T3, Mouse IL2Rγ extracellular domain …. The assay is described as follows: SPR Biacore 4000, anti-hFc-captured mAb, 25 C. On the procedure: as §1, §2
Assay [7] concerns the target T4, Human IL2Rγ extracellular domain …. The assay is described as follows: SPR Biacore 4000, anti-hFc-captured mAb, 25 C. On the procedure:
as §1, §2

B1: H4H12858P (antibody, human IgG4 S228P, kappa, V domains shown)
VH: EVQLVESGGDLVQPGGSLRLSCTASGFIFRNYAMNWVRQAPGKGLEWLSGILGSNDNTYYVDSVKGRFTISRDNSRNTLYLQMNSLRAEDSAVYYCAKGDAGGFDYWGQGTLVTVSS
VL: DVVMTQSPLSLPVILGQPASISCRSSQSLVSSDGNTYLNWFQQRPGQSPRRLIYKVSNRDSGVPDRFSGSGSGTDFTLKISRVEAEDVGAYYCMQGSYWPPTFGQGTKLEIKR
notes: fully human anti-IL2Rgamma mAb, human IgG4 Fc; also called REGN9433
The term Kd denotes a measure of binding affinity in units of concentration. A lower Kd goes with tighter binding. A word on the koff: it is the rate constant with which the complex falls apart. What is called kon is the second-order rate constant of association. Turning to B1, in assay [1], the “100 nM Ag Bound” value worked out at 0 RU. In assay [2], the “100 nM Ag Bound” value is 47 RU, the equilibrium dissociation constant (Kd) turned out to be 4.77 nM, the koff came out at 0.00148 s⁻¹ and the association rate constant (kon) amounted to 309000 M⁻¹ s⁻¹. The molecule further yielded a t1/2 in assay [2] of 0.133 h. The “100 nM Ag Bound” value in assay [3] came to 0 RU. Besides, in assay [4], the “50 nM Ag Bound” value stood at 37 RU, the equilibrium dissociation constant (Kd) is 1.49 nM, the koff came to 0.00025 s⁻¹ and the kon is 167000 M⁻¹ s⁻¹. In assay [4], this molecule had a t1/2 of 0.767 h. Also, in assay [5], the “100 nM Ag Bound” value amounted to 0 RU and the binding result is reported as “no binding (tested: 100 nM)”. In assay [6], the “100 nM Ag Bound” value was 2 RU and the binding result is “no binding (tested: 100 nM)”. For the same molecule, in assay [7], the “50 nM Ag Bound” value is 46 RU, binding was put at a Kd of 0.855 nM, the koff was found to be 9.94e-05 s⁻¹ and the kon was determined as 116000 M⁻¹ s⁻¹. Moreover, in assay [7], the t1/2 is 1.93 h.

B2: H4H12871P (antibody, human IgG4 S228P, kappa, V domains shown)
VH: QVQLQESGPGLVKPSQTLSLTCTVSGGSITSGGYYWSWIRQYPGQGLEWIGYIYYSGKTYYNPSFTSRITISVDTSKKQFSLKMSSVTAADTAVYYCARAGFTSSNGWFDPWGQGTLVTVSS
VL: DIQMTQSPSSLSASVGDRVTITCRASQNIRSYLNWYQQKPGKAPKLLIYSASSLQSGVPSRFSGSGSGTDFTLTISSLQPEDFPTYYCQQTYSSPWTFGPGTKVEIKR
notes: fully human anti-IL2Rgamma mAb, human IgG4 Fc; also called REGN9434
With B2, the “100 nM Ag Bound” value in assay [1] was determined as 1 RU. Further, in assay [2], the “100 nM Ag Bound” value was 55 RU, the dissociation constant (Kd) was 12.7 nM, the koff came to 0.00261 s⁻¹ and the kon amounted to 206000 M⁻¹ s⁻¹. Moreover, the t1/2 in assay [2] was found to be 0.0667 h. In assay [3], the “100 nM Ag Bound” value was -1 RU. In addition, in assay [4], the “50 nM Ag Bound” value was determined as 81 RU, the Kd worked out at 0.0505 nM, the koff is 2.39e-05 s⁻¹ and the kon was 473000 M⁻¹ s⁻¹. In assay [4], this molecule showed a t1/2 of 8.07 h. For the same molecule, in assay [5], the “100 nM Ag Bound” value came out at 1 RU and the binding result is “no binding (tested: 100 nM)”. Moreover, the “100 nM Ag Bound” value in assay [6] was 0 RU. In addition, in assay [7], the “50 nM Ag Bound” value is 103 RU; the affinity, expressed as Kd, was 0.144 nM; the off-rate constant (koff) is 5.22e-05 s⁻¹; the kon is 363000 M⁻¹ s⁻¹. The molecule further gave a t1/2 in assay [7] of 3.68 h.

B3: H4H12884P (antibody, human IgG4 S228P, kappa, V domains shown)
VH: QVQLQESGPGLVKPSQTLSLTCTVSGGSISSGGYYWSWIRQHPGKGLEWIGFIYYSGKTYYNPSLKSRLTISVDTSKSQFSLKLRSVTAADTAVYYCARLGYTNSAGWFDPWGQGTLVTVSS
VL: DIQMTQSPSSLSASVGDRVTITCRASQSISSYLNWYQQKPGKAPNLLIYAASSLQSGVPSRFSGSGSGTDFTLTISSLQPEDLATYYCQQSYTTPFTFGPGTKVDIKR
notes: fully human anti-IL2Rgamma mAb, human IgG4 Fc
For the molecule B3, the “100 nM Ag Bound” value in assay [1] worked out at 4 RU; in assay [2], 59 RU; in assay [3], 1 RU; in assay [5], 4 RU; in assay [6] it was 2 RU. The Kd in assay [2] came out at 16.1 nM; in assay [4], 0.0554 nM; in assay [7], 0.113 nM. The koff in assay [2] worked out at 0.00321 s⁻¹; in assay [4], 2.69e-05 s⁻¹; in assay [7], 4.02e-05 s⁻¹. Also, the kon in assay [2] was found to be 200000 M⁻¹ s⁻¹; in assay [4] it was 486000 M⁻¹ s⁻¹; in assay [7] it was 355000 M⁻¹ s⁻¹. Further, the t1/2 came to 0.0667 h in assay [2], 7.15 h in assay [4] and 4.78 h in assay [7]. The figures for the “50 nM Ag Bound” value in assay [4] and in assay [7] were 85 RU and 112 RU, respectively. For the same molecule, the binding result in assay [5] and in assay [6] was “no binding (tested: 100 nM)” each time.

B4: H4H12926P2 (antibody, human IgG4 S228P, kappa, V domains shown)
VH: QVQLQQSGPGLVKPSQTLSLTCAISGDSVSSNIAAWNWIRLSPSRGLEWLGRTFFRSTWFYDYSLSVKGRITINPDTSKNQFSLHLNSVTPEDAAVYYCARTGRRWSLDYWGQGTLVTVSS
VL: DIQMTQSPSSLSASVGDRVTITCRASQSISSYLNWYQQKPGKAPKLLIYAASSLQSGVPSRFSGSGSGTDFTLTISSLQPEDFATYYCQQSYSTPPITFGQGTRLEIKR
notes: as for B3
Take B4: in assay [1], the “100 nM Ag Bound” value was found to be 2 RU. In assay [3], the “100 nM Ag Bound” value worked out at 0 RU. In assay [4], the “50 nM Ag Bound” value was determined as 11 RU, binding was put at a Kd of 16 nM, the koff came to 0.00326 s⁻¹ and the kon was 204000 M⁻¹ s⁻¹. In addition, in assay [4], the t1/2 was determined as 0.0667 h. Further, in assay [5], the “100 nM Ag Bound” value stood at 2 RU and the binding result is given as “no binding (tested: 100 nM)”. In addition, in assay [6], the “100 nM Ag Bound” value worked out at 0 RU and the binding result is recorded as “no binding (tested: 100 nM)”. Besides, in assay [7], the “50 nM Ag Bound” value stood at 46 RU, the Kd was 5.21 nM, the koff amounted to 0.000962 s⁻¹ and the on-rate constant (kon) was determined as 185000 M⁻¹ s⁻¹. The same molecule gave a t1/2 in assay [7] of 0.2 h.

B5: H4H12886P (antibody, human IgG4 S228P, kappa, V domains shown)
VH: EVQLVESGGGLVKPGGSLRLSCAASGFTFSTAWMSWVRQSPGRGLEWVGRMKSKTDGGTTFYAAPVKGRFTISRDDSKNTLYLQMNSLKTEDTAVYYCTTGLVPAFYKYYGVDVWGQGTTVTVSS
VL: DIQMTQSPSSLSASVGDRITITCQASQDITNYLNWYQQKPGKAPNLLIYDASNLVTGVPSRFSGSGSGTDFTFTILSLQPEDIATYYCQQYDSLLTFGPGTKVDIKR
notes: as for B3
In the case of B5, the “100 nM Ag Bound” value in assay [1] worked out at 4 RU. Further, in assay [2], the “100 nM Ag Bound” value worked out at 47 RU; the affinity, expressed as Kd, was 17.7 nM; the koff amounted to 0.000846 s⁻¹; the kon stood at 47800 M⁻¹ s⁻¹. This molecule registered a t1/2 in assay [2] of 0.233 h. Also, the “100 nM Ag Bound” value in assay [3] is -2 RU. Moreover, in assay [4], the “50 nM Ag Bound” value came out at 19 RU, the Kd worked out at 12.8 nM, the koff was 9.09e-05 s⁻¹ and the kon is 7080 M⁻¹ s⁻¹. Besides, the t1/2 in assay [4] turned out to be 2.12 h. Further, in assay [5], the “100 nM Ag Bound” value is 3 RU and the binding result is reported as “no binding (tested: 100 nM)”. Moreover, the “100 nM Ag Bound” value in assay [6] was 2 RU. Also, in assay [7], the “50 nM Ag Bound” value amounted to 23 RU, the Kd was found to be 1.26 nM, the koff was determined as 6.7e-05 s⁻¹ and the kon was 53400 M⁻¹ s⁻¹. In assay [7], this molecule yielded a t1/2 of 2.87 h.
